Results taken from patent publication US20240301071A1 (Alector, published 2024).
Changes are numbered by the printed parent chain. Blank lines part the entries; values can stand above or below the binder they belong to.

Legend:
soluble human FcgR2B [1] = target: T1, soluble human FcgR2B (human, UniProt P31994 46-217); assay: BLI (Octet RED96), antibody captured by anti-human Fab-CH1, 100 nM soluble human FcR
T1 construct: also called CD32B
T1 sequence (looked up): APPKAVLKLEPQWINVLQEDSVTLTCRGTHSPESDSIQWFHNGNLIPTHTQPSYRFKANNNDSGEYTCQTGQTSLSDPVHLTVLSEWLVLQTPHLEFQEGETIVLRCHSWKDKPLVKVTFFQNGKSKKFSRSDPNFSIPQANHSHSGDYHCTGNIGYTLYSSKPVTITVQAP
Protocol: (§1) FcR affinity measurements for anti-SIRPA antibody Fc variants were obtained using bio-layer interferometry (BLI) on a Pall ForteBio Octet RED96 instrument. […] Single cycle kinetics were performed with 100 nM of soluble human FcRs flowed over captured antibody to record traces (300 s association time, 300 s dissociation time). Data analysis was performed using ForteBio Data Analysis Software, version 9.0. Standard kinetic buffer (PBS, 0.1% BSA, 0.02% Tween-20, pH 7.2) was used for the assay and for preparing reagents.

[2] = target: T2, soluble human FcgR2A R131 (human, UniProt P12318 36-218); assay: as above
T2 construct: also called CD32A-R131
T2 sequence (looked up): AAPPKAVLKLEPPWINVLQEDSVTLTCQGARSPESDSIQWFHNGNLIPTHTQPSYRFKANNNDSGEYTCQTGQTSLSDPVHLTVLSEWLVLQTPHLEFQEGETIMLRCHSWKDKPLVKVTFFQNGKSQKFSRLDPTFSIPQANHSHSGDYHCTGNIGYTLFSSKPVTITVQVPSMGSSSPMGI
Protocol: as §1

soluble human FcgR1 = target: T3, soluble human FcgR1 (human, UniProt P12314 16-288); assay: as above
T3 construct: also called FcγRI; CD64
Protocol: as §1

[3] = target: T4, soluble human FcgR2A H131 (human, UniProt P12318 36-218); assay: as above
T4 construct: also called CD32A-H131
T4 sequence (looked up): T2 sequence (looked up) with R132H
Protocol: as §1

[4] = target: T5, human SIRPA on human macrophages (primary monocyte-derived macrophages; U937 line) (human, UniProt P78324 31-504); assay: cell-based or functional assay
[5] = target: T6, soluble human FcgR3A F158 (human, UniProt P08637 17-208); assay: BLI (Octet RED96), antibody captured by anti-human Fab-CH1, soluble human FcR
T6 construct: also called CD16A F158
Protocol: as §1

[6] = target: T7, soluble human FcgR3A V158 (human, UniProt P08637 17-208); assay: as above
T7 construct: also called CD16A V158
Protocol: as §1

[7] = target: T5, human SIRPA on human macrophages …; assay: cell-based or functional assay; remark: listed apart in the source
soluble human FcgR2B [8] = target: T1, soluble human FcgR2B; assay: BLI (Octet RED96), antibody captured by anti-human Fab-CH1, soluble human FcR
Protocol: as §1

[9] = target: T2, soluble human FcgR2A R131; assay: as above
Protocol: as §1

[10] = target: T4, soluble human FcgR2A H131; assay: as above
Protocol: as §1

T5 sequence (P78324 31-370): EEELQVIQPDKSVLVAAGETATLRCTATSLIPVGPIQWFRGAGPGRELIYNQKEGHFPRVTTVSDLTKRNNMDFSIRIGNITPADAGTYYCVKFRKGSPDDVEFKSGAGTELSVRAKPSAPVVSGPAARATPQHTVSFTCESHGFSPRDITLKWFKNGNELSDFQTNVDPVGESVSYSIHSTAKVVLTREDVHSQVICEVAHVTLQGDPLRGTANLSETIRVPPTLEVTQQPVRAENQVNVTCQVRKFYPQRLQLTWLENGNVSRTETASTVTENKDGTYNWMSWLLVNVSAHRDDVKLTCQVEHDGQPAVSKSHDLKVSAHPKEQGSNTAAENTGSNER
T7 sequence (P08637 17-208 F176V limits assumed): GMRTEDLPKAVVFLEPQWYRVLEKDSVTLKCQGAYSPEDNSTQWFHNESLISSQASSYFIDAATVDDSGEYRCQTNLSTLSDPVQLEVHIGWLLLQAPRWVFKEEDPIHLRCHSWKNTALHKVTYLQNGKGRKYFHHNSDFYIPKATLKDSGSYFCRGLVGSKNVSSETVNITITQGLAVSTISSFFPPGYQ
T3 sequence (P12314 16-288 limits assumed): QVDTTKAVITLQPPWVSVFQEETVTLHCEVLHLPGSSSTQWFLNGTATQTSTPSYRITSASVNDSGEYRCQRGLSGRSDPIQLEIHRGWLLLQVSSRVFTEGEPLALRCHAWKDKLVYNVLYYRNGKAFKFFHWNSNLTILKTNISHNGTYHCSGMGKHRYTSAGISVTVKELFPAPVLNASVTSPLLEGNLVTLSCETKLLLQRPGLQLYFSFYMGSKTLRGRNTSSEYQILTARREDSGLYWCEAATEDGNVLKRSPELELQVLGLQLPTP
T6 sequence (P08637 17-208 limits assumed): as the sequence (P08637 17-208 F176V limits assumed) above, with V160F counted along it

binding result (soluble human FcgR2B [1]): binds
binding result [2]: binds
binding result (soluble human FcgR1): binds
binding result [3]: binds
IC50 (nM), SIRPA downregulation on human monocyte-derived macrophages [4]: 0.0451 nM
Max % DR, SIRPA, human monocyte-derived macrophages [4]: 74.6%
binding result [5]: no binding (tested: 100 nM)
binding result [6]: no binding (tested: 100 nM)
EC50 (nM), phagocytosis of A375 cells by primary human macrophages [7]: 0.458 nM
Max, fold increase in phagocytosis over baseline activity [7]: 1.77 fold
B1: 3F9-22 hIgG1 NSLF (antibody)
heavy: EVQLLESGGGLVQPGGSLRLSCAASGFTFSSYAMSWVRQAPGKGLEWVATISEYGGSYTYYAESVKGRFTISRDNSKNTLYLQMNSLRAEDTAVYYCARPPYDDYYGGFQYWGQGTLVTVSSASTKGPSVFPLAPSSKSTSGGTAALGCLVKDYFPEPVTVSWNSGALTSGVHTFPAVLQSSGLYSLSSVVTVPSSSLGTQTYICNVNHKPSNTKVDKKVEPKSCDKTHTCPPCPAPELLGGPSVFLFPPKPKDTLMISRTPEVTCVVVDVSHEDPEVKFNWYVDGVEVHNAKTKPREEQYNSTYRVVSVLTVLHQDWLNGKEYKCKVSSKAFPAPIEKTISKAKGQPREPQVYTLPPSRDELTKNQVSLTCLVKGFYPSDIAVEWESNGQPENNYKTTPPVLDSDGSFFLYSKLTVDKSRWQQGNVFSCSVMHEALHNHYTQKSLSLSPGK
light: DIQLTQSPSSLSASVGDRVTITCRASKSVSSGGYSYMHWYQQKPGKAPKLLIYLASNLESGVPSRFSGSGSGTDFTLTISSVQPEDFATYYCQHNRELPVTFGQGTKLEIKRTVAAPSVFIFPPSDEQLKSGTASVVCLLNNFYPREAKVQWKVDNALQSGNSQESVTEQDSKDSTYSLSSTLTLSKADYEKHKVYACEVTHQGLSSPVTKSFNRGEC
notes: also called 3F9-22 NSLF; 3F9-22NSLF

binding result (soluble human FcgR1): binds
IC50 (nM), SIRPA downregulation on human monocyte-derived macrophages [4]: 0.0447 nM
Max % DR, SIRPA, human monocyte-derived macrophages [4]: 41.6%
binding result (soluble human FcgR2B [8]): no binding (tested: 100 nM)
binding result [9]: no binding (tested: 100 nM)
binding result [5]: no binding (tested: 100 nM)
binding result [6]: no binding (tested: 100 nM)
binding result [10]: no binding (tested: 100 nM)
B2: 3F9-22 hIgG1 LALAPS (antibody)
heavy: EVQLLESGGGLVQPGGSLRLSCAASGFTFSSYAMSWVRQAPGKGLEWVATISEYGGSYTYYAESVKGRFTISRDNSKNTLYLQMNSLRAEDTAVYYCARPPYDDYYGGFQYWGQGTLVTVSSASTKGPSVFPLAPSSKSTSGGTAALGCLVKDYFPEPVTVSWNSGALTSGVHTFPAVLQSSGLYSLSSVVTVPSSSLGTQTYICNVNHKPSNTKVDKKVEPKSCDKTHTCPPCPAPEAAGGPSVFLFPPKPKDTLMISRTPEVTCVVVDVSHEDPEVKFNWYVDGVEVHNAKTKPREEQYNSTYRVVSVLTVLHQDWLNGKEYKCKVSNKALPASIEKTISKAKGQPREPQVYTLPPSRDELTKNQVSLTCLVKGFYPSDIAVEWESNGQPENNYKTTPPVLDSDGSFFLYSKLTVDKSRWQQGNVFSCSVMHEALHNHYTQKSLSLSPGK
light: B1 light
notes: also called 3F9-22 LALAPS
